B1: Lysosomal cobalamin transporter ABCD4 (Homo sapiens), O14678 (parent)
chain: MAVAGPAPGAGARPRLDLQFLQRFLQILKVLFPSWSSQNALMFLTLLCLTLLEQFVIYQVGLIPSQYYGVLGNKDLEGFKTLTFLAVMLIVLNSTLKSFDQFTCNLLYVSWRKDLTEHLHRLYFRGRAYYTLNVLRDDIDNPDQRISQDVERFCRQLSSMASKLIISPFTLVYYTYQCFQSTGWLGPVSIFGYFILGTVVNKTLMGPIVMKLVHQEKLEGDFRFKHMQIRVNAEPAAFYRAGHVEHMRTDRRLQRLLQTQRELMSKELWLYIGINTFDYLGSILSYVVIAIPIFSGVYGDLSPAELSTLVSKNAFVCIYLISCFTQLIDLSTTLSDVAGYTHRIGQLRETLLDMSLKSQDCEILGESEWGLDTPPGWPAAEPADTAFLLERVSISAPSSDKPLIKDLSLKISEGQSLLITGNTGTGKTSLLRVLGGLWTSTRGSVQMLTDFGPHGVLFLPQKPFFTDGTLREQVIYPLKEVYPDSGSADDERILRFLELAGLSNLVARTEGLDQQVDWNWYDVLSPGEMQRLSFARLFYLQPKYAVLDEATSALTEEVESELYRIGQQLGMTFISVGHRQSLEKFHSLVLKLCGGGRWELMRIKVE
partner: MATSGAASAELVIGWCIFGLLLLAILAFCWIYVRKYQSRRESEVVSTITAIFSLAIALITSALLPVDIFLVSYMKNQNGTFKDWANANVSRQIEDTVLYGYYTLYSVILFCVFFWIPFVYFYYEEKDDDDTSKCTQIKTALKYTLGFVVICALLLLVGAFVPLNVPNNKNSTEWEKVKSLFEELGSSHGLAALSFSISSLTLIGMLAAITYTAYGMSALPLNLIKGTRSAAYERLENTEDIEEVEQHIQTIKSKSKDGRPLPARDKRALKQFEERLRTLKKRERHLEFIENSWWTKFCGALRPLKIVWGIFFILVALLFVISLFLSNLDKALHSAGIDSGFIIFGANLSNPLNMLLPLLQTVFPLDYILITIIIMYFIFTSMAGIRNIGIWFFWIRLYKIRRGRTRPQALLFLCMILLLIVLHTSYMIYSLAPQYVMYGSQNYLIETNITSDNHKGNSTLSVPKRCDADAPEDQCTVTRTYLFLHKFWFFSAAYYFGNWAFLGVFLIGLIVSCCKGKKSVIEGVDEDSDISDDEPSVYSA
B2: Lysosomal cobalamin transport escort protein LMBD1 (Homo sapiens), Q9NUN5 (parent)
chain: B1 partner
partner: B1 chain

Variants of: B1
Conditions: with lmbd1_human LMBRD1, Q9NUN5

Variant	effect of a mutation on the interaction
G426A	decreasing interaction strength
N141K	decreasing interaction strength
G426A;K427L	disrupting interaction strength

Results, then the variant that gave them:

effect of a mutation on the interaction	Variant
decreasing interaction strength	D548N
decreasing interaction strength	K427L
decreasing interaction strength	R432Q

Variants of: B1
Conditions: with lmbd1_human LMBRD1, Q9NUN5
Remark: another data set of the same source

effect of a mutation on the interaction	Variant
decreasing interaction strength	G426A;K427L

Variants of: B2
Conditions: with abcd4_human ABCD4, O14678

effect of a mutation on the interaction	Variant
decreasing interaction strength	Y232A

From IntAct's records for PubMed 28572511
